# From patent US20130040360
# Test system: full-length rat proMMP9(1-708) (SEQ ID NO:11)
# Sequence (chain, as listed by the source): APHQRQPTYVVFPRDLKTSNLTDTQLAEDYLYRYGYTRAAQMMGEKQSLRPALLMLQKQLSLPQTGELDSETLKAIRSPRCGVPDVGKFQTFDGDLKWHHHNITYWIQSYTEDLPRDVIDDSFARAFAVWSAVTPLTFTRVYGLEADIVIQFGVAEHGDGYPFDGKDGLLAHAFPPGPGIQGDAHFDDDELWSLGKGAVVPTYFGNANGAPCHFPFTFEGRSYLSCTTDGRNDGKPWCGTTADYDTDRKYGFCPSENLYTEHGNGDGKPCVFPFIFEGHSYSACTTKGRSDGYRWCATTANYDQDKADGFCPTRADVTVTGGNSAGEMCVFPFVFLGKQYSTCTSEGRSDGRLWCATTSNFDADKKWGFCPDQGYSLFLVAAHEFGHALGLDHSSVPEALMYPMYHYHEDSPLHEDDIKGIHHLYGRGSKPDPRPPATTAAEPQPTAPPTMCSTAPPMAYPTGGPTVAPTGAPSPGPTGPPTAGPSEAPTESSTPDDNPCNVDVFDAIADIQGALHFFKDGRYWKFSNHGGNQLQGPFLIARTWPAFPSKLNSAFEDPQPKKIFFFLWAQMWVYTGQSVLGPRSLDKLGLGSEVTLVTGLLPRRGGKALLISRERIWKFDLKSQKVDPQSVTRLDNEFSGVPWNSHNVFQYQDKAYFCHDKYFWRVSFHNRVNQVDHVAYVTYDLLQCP
# human catalytic MMP3, MMP3(100-265) (SEQ ID NO:8), sequence (chain, as listed by the source): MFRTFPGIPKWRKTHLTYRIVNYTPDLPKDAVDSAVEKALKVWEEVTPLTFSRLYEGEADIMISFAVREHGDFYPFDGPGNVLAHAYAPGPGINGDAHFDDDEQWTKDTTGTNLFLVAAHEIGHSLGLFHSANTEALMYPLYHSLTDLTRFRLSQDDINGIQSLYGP
substance,measurement,value
"human catalytic MMP3, MMP3(100-265) (SEQ ID NO:8)",proteolytic conversion of proMMP9 to catalytic MMP9,full-length rat proMMP9(1-708) (SEQ ID NO:11) converted to catalytic rat MMP9 by catalytic MMP3
